{"source": "paper PMC9691700", "about": "“CD147 contributes to SARS-CoV-2-induced pulmonary fibrosis” (Signal Transduction and Targeted Therapy, 2022)", "target": "T1, His-Spike RBD (40592-V08H) (SARS-CoV-2, UniProt P0DTC2 319-541)", "T1 construct": "source: bought: Sino Biological", "test": "SPR; Biacore T200, CM5 sensor chip; RBD fixed to the chip by amino coupling; CD147 flowed over; binding time 90 s, dissociation time 120 s", "conditions": "both partners purified"}
{"binder": "Human His-CD147 (receptor, CD147 (basigin), human; also called human CD147; hCD147) GTVFTTVEDLGSKILLTCSLNDSATEVTGHRWLKGGVVLKEDALPGQKTEFKVDSDDQWGEYSCVFLPEPMGTANIQLHGPPRVKAVKSSEHINEGETAMLVCKSESVPPVTDWAWYKITDSEDKALMNGSESRFFVSSSQGRSELHIENLNMEADPGQYRCNGTSSKGSDQAIITLRVRSHLAAL", "values": [{"measurement": "Kd", "value": 4.47, "unit": "µM"}]}
